We go through five molecules from paper doi:10.1101/2023.06.09.544295 (bioRxiv, 2023).

One assay relates to CMKLR1. Further details: method as in 4 sources, one per row (each row's own in cited_ref): ref [28] = [28]; PMID 25437209; doi:10.1371/journal.pone.0112925; 28 Graham K. L. A novel CMKLR1 small molecule antagonist suppresses CNS autoimmune inflammatory disease. PLoS One 9 , e112925 , doi: 10.1371/journal.pone.0112925 ( 2014 ). 25437209 PMC4249827 ||| ref [9] = [9]; PMID 25548799; doi:10.1007/s00011-014-0792-7; 9 Mariani F. & Roncucci L. Chemerin/chemR23 axis in inflammation onset and resolution. Inflamm Res 64 , 85 – 95 , doi: 10.1007/s00011-014-0792-7 ( 2015 ). 25548799 ||| ref [25]–[27] = [25]; PMID 17339491; doi:10.4049/jimmunol.178.6.3912; 25 Arita M. Resolvin E1 selectively interacts with leukotriene B4 receptor BLT1 and ChemR23 to regulate inflammation. J Immunol 178 , 3912 – 3917 , doi: 10.4049/jimmunol.178.6.3912 ( 2007 ). 17339491 || [26]; PMID 19906641; doi:10.1074/jbc.M109.044131; 26 Ohira T. Resolvin E1 receptor activation signals phosphorylation and phagocytosis. J Biol Chem 285 , 3451 – 3461 , doi: 10.1074/jbc.M109.044131 ( 2010 ). 19906641 PMC2823415 || [27]; PMID 25637017; doi:10.4049/jimmunol.1402166; 27 Herova M. , Schmid M. , Gemperle C. & Hersberger M. ChemR23, the receptor for chemerin and resolvin E1, is expressed and functional on M1 but not on M2 macrophages. J Immunol 194 , 2330 – 2337 , do ||| ref [2]–[5] = [2]; PMID 17635925; doi:10.1074/jbc.M700793200; 2 Goralski K. B. Chemerin, a novel adipokine that regulates adipogenesis and adipocyte metabolism. J Biol Chem 282 , 28175 – 28188 , doi: 10.1074/jbc.M700793200 ( 2007 ). 17635925 || [3]; PMID 17767914; doi:10.1016/j.bbrc.2007.08.104; 3 Roh S. G. Chemerin--a new adipokine that modulates adipogenesis via its own receptor. Biochem Biophys Res Commun 362 , 1013 – 1018 , doi: 10.1016/j.bbrc.2007.08.104 ( 2007 ). 17767914 || [4]; PMID 29848608; doi:10.1530/JOE-18-0174; 4 Helfer G. & Wu Q. F. Chemerin: a multifaceted adipokine involved in metabolic disorders. J Endocrinol 238 , R79 – R94 , doi: 10.1530/JOE-18-0174 ( 2018 ). 29848608 PMC6026924 || [5]; PMID 29279348; doi:10.1124/pr.116.013177; 5 Kennedy A. J. & Davenport A. P. International Union of Basic and Clinical Pharmacology CIII: Chemerin Receptors CMKLR1 (Chemerin(1)) and GPR1 (Chemerin(2)) Nomenclature, Pharmacology, and Function. Particulars: cited from earlier work. The text has this: Other isoforms of chemerin due to cleavage at different sites of the C-terminal region have also been detected in vivo with ... || The apparent contradictory functional roles of CMKLR1 in inflammation may be associated with the spatiotemporal regulation of the inflammation processes in cells. It is possible that in the early stage of inflammation the CMKLR1 signaling is mainly pro-inflammatory by promoting chemotaxis and activation of DCs and macrophages; whereas at the late stage of inflammation CMKLR1 activation can induce pro-resolving pathways to dampen inflammation.

The target of assay [1] is T1, wild type human CMKLR1 with the N-terminal 28-amino acid segment of human β2-adrenergic receptor fused to its … (Homo sapiens (Human), UniProt P07550).
T1 chain: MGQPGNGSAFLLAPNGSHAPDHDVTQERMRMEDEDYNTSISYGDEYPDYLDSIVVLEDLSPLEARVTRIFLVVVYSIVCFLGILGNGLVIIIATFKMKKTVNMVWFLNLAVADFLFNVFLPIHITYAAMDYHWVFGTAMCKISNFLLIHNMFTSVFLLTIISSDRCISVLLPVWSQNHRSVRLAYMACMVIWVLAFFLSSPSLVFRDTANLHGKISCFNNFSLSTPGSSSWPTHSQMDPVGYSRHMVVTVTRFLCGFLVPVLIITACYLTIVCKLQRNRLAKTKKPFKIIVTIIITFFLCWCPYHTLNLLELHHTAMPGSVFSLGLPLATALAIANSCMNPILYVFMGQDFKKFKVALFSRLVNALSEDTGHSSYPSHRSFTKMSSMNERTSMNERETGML
The assay is described as follows: cryo-EM structure of co-purified complex; chemerin9 agonist, Gβ1γ2, scFv16 and apyrase (nucleotide-free); Gαi1 carries dominant negative mutations S47N/G203A/E245A/A326S.

Assay [2] deals with primary human macrophages. The assay is described as follows: Macrophage differentiation assay, cell surface marker expression by flow cytometry. The format is cell-based. The source says:
HLA-DR is a class II major histocompatibility complex cell surface molecule, a signature cell marker for antigen presenting cells (APCs), while CD86 is a selective ligand for the costimulatory molecule CD28, the activation of which is indispensable for optimal T cell prime and activation; together, HLA-DR and CD86 are signature cell surface markers for the canonical M1-like macrophages. On the other hand, CD206, the mannose receptor (MMR), is a glycosylated surface protein belonging to the scavenger receptor family. Similarly, CD163, another member of the scavenger receptor family, is the receptor for hemoglobin-haptoglobin complex. The upregulation of CD206 and CD163 in macrophages has been associated with the anti-inflammatory and tissue-repair phenotype,[33].
To generate human peripheral blood-derived macrophages, buffy coat was isolated from leukapheresis cones by Ficoll-Paque centrifugation. Monocytes were enriched from human PBMC by CD14 beads positive selection (Miltenyi Biotec) and cultured in IMDM supplanted with 10% human AB serum (omega scientific, Cat# HS-20) for 7 days for them to differentiate to macrophages.
Differentiated macrophages were then replated to low-bind plate at 0.15 million cells per 24-well plate, in 500 µl medium overnight before stimulated with various condition. […] Data were acquired on Cytek Aurora flowcytometry, analysis on Flowjo. MFI quantifications were normalized to M0 condition, and statistically analyzed by 2-way ANOVA, with Dunnett’s multiple comparisons test, all groups were pair-analyzed with M0 group as reference.

[3] abbreviates: MFI fold-change normalized to M0, chemerin9 10 ng/mL 72 hours, IFNg 10 ng/ml plus LPS 10 ng/ml, IL-10 10 ng/ml, n=4 donors, Fig. 1a.

Take `CC[C@@H](O)/C=C/C=C\C[C@@H](O)/C=C/C=C/C=C\[C@@H](O)CCCC(=O)O` [RvE1, resolvin E1]: in the assay on CMKLR1 (ref [25]–[27]), the “action on CMKLR1 (in words)” value is reported as “suggested to act on CMKLR1 to promote the resolution of inflammation”.

As for `C[N+](C)(C)CCC(=O)c1cccc2ccccc12.[I-]` [α-NETA], the “potency against CMKLR1 (antagonist)” value in the assay on CMKLR1 (small-molecule antagonist, ref [28]) is on record as “low micromolar potency”. Take “chemerin15: synthetic peptide corresponding to the 141–155 amino acid segment of chemerin (AGEDPHSFYFPGQFA; UniProt Q99969 141-155, looked up, fragment)”: in the assay with CMKLR1 (synthetic peptides, ref [9]), the “CMKLR1 agonism / anti-inflammatory effect (in words)” value is recorded as “stable agonists of CMKLR1 that induce anti-inflammatory effects”.

B1: dominant negative form of human Gαi1 (DNGαi1) (protein)
chain: GCTLSAEDKAAVERSKMIDRNLREDGEKAAREVKLLLLGAGESGKNTIVKQMKIIHEAGYSEEECKQYKAVVYSNTIQSIIAIIRAMGRLKIDFGDSARADDARQLFVLAGAAEEGFMTAELAGVIKRLWKDSGVQACFNRSREYQLNDSAAYYLNDLDRIAQPNYIPTQQDVLRTRVKTTGIVETHFTFKDLHFKMFDVGAQRSERKKWIHCFEGVTAIIFCVALSDYDLVLAEDEEMNRMHASMKLFDSICNNKWFTDTSIILFLNKKDLFEEKIKKSPLTICYPEYAGSNTYEEAAAYIQCQFEDLNKRKDTKEIYTHFTCSTDTKNVQFVFDAVTDVIIKNNLKDCGLF
In the case of B1, in assay [1], the binding result was “binds”.

B2: IL-10: reference signal molecule to induce the M2-like macrophages (protein, UniProt P22301 19-178, looked up)
Interleukin-10: SPGQGTQSENSCTHFPGNLPNMLRDLRDAFSRVKTFFQMKDQLDNLLLKESLLEDFKGYLGCQALSEMIQFYLEEVMPQAENQDPDIKAHVNSLGENLKTLRLRLRRCHRFLPCENKSKAVEQVKNAFNKLQEKGIYKAMSEFDIFINYIEAYMTMKIRN
For B2, the “statistical significance of marker changes” value in assay [2] (2-way ANOVA with Dunnett's multiple comparisons vs M0, n=4) is given as “statistically insignificant”. In assay [2] (setting [3]), the “CD86 expression (in words)” value was “downregulation”, the “CD163 expression (in words)” value is “upregulation” and the “CD206 expression (in words)” value was “upregulation”. Moreover, the “macrophage phenotype (in words)” value in assay [2] (overall, chemerin9 10 ng/mL, 72 hours) was “consistent with an anti-inflammatory phenotype”.
